Paper PMC12575831

Tested on: PUS7 (pseudouridine synthase 7) (Homo sapiens)
Assay: EMSA
Conditions: 1 mM Mg2+; 40 nM RNA, 0-500 nM PUS7; none (unmodified IVT, U250); 10 mM Tris-HCl pH 7.5, 100 mM KCl, 1 mM MgCl2, 0.1 mM DTT, 5% glycerol; 37 °C 30 min; gel 4-20% TBE at 4 °C

Substance: in vitro-transcribed 7SK snRNA
- Kd: 98 nM
